According to patent US20230235013A1 (MABSOLVE, published 2023):
Substitutions are numbered along the chain they refer to. In names and notes the source's numbering stands.

B1: anti-CD20 human IgG1 L234E/L235H/G236R (antibody)
heavy: QVQLQQPGAELVKPGASVKMSCKASGYTFTSYNMHWVKQTPGRGLEWIGAIYPGNGDTSYNQKFKGKATLTADKSSSTAYMQLSSLTSEDSAVYYCARSTYYGGDWYFNVWGAGTTVTVSSASTKGPSVFPLAPSSKSTSGGTAALGCLVKDYFPEPVTVSWNSGALTSGVHTFPAVLQSSGLYSLSSVVTVPSSSLGTQTYICNVNHKPSNTKVDKKVEPKSCDKTHTCPPCPAPEEHRGPSVFLFPPKPKDTLMISRTPEVTCVVVDVSHEDPEVKFNWYVDGVEVHNAKTKPREEQYNSTYRVVSVLTVLHQDWLNGKEYKCKVSNKALPAPIEKTISKAKGQPREPQVYTLPPSRDELTKNQVSLTCLVKGFYPSDIAVEWESNGQPENNYKTTPPVLDSDGSFFLYSKLTVDKSRWQQGNVFSCSVMHEALHNHYTQKSLSLSPGK
light: QIVLSQSPAILSASPGEKVTMTCRASSSVSYIHWFQQKPGSSPKPWIYATSNLASGVPVRFSGSGSGTSYSLTISRVEAEDAATYYCQQWTSNPPTFGGGTKLEIKRTVAAPSVFIFPPSDEQLKSGTASVVCLLNNFYPREAKVQWKVDNALQSGNSQESVTEQDSKDSTYSLSSTLTLSKADYEKHKVYACEVTHQGLSSPVTKSFNRGEC
notes: also called 2-13; 1-36
B2: anti-CD20 human IgG1 L234Q/G236R (antibody)
heavy: not shown
light: B1 light
notes: also called 2-30
B3: anti-CD20 human IgG1 L234E/L235I/G236R (antibody)
heavy: B1 heavy with H239I
light: B1 light
notes: also called 2-14; 1-37
B4: anti-CD20 human IgG1 L234H/L235I/G236R (antibody)
heavy: B1 heavy with E238H, H239I
light: B1 light
notes: also called 2-20; 1-67
B5: anti-CD20 human IgG1 L234K/L235T/G236R (antibody)
heavy: B1 heavy with E238K, H239T
light: B1 light
notes: also called 2-25; 1-90
B6: anti-CD20 human IgG1 L234G/L235Q/G236R (antibody)
heavy: B1 heavy with E238G, H239Q
light: B1 light
notes: also called 2-18; 1-57
B7: anti-CD20 human IgG1 L234E/L235V/G236R (antibody)
heavy: B1 heavy with H239V
light: B1 light
notes: also called 2-16; 1-46
B8: anti-CD20 human IgG1 L234G/L235H/G236R (antibody)
heavy: B1 heavy with E238G
light: B1 light
notes: also called 2-17; 1-51

Experiments:
[1] = biological target: T1, Histidine-tagged recombinant human FcγRI (CD64) (human, UniProt P12314 16-288, limits assumed); test: SPR, His-FcγRI captured; mean;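 note: biacore T200 SPR at 25 °C, anti-His surface capturing FcγRI, Fc-variant antibodies injected at 100 µg/mL for 1 min, signal near injection end minus third buffer blank, three repeats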
T1 construct: bought

[2] = biological target: T1, Histidine-tagged recombinant human …; test: SPR, His-FcγRI captured; Expt 3;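 note: biacore T200 SPR at 25 °C, Fc-variant antibodies at 100 µg/mL flowed 1 min over anti-His-captured FcγRI, signal taken just before injection end minus a buffer blank cycle; antibody analyte injected at 100 µg/mL for 1 min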
[3] = biological target: T1, Histidine-tagged recombinant human …; test: SPR, His-FcγRI captured; Expt 2;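 note: biacore T200 SPR at 25 °C, Fc-variant antibodies at 100 µg/mL flowed 1 min over anti-His-captured receptor, signal read near injection end minus third buffer blank; antibody analyte injected at 100 µg/mL for 1 min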
Protocol: Binding analysis was carried out by surface plasmon resonance at 25° C. using a Biacore® T200 instrument with Biacore® T200 control software. The sample compartment was held at 5° C. The running buffer (HBS-EP+) consisted of 0.01 M HEPES pH 7.4, containing 0.15 M NaCl, 3 mM EDTA, and 0.05% v/v Surfactant P20. Methods were run using the manufacturer's standard method wizards as described in the Biacore® T200 Instrument Handbook.
The cell was activated by treatment with EDC/NHS for 7 min. The antibody was diluted to 10 μg/mL in 10 mM sodium acetate pH 5.0 and injected for 7 min at 5 μL/min. The flow cell was deactivated by injection of 1M ethanolamine for 7 min. This process was repeated in the absence of anti-his antibody on a separate flow cell to generate a reference surface. […] Samples of purified antibodies comprising variant Fc regions (1 mg/mL in PBS) were diluted with running buffer to 100 μg/mL and were injected for 1 min at 30 μL/min and allowed to disassociate for 2 min. Between each cycle, the chip was regenerated by injection of 10 mM glycine pH 3.0 for 0.5 min at a flow rate of 30 μL/min and recharged with a fresh injection of FcγRI. At the beginning of each experiment, three blank cycles were run, with buffer alone being injected instead of test sample. The average SPR signal (relative to the reference cell) was measured in a window approximately 8 to 13 seconds before the injection of test sample (baseline) and approximately 3 to 8 seconds before the end of injection (response). The response of the third of the blank (buffer) samples was subtracted from the response of each test sample in order to allow for any dissociation of the bound FcγRI giving a corrected response for each test sample. The whole experiment was repeated three times with the test samples being analysed in different orders each time.

[4] = biological target: T1, Histidine-tagged recombinant human …; test: SPR, His-FcγRI captured; Expt 1;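 note: SPR at 25 °C on anti-His antibody chip capturing FcγRI, Fc-variant antibodies injected at 100 µg/mL for 1 min, signal near end of injection minus buffer blank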

Row | Binder | Corrected response (RU), Mean [1] [RU] | Corrected response (RU) [2] [RU] | Corrected response (RU) [3] [RU] | Corrected response (RU) [4] [RU]
1 | B1 | 5.1 | 6.2 | 4.5 | 4.6
2 | B2 | 39.3 | 49 | 27 | 41.9
3 | B3 | 10.4 | 11.7 | 8.1 | 11.6
4 | B4 | 15.6 | 22.8 | 10.9 | 13.1
5 | B5 | -0.6 | 1.1 | -1 | -1.8
6 | B6 | 5.3 | 6.1 | 5.2 | 4.4
7 | B7 | 5.9 | 7.4 | 5.5 | 4.8
8 | B8 | 10.1 | 24.4 | 4.2 | 1.8
